{
  "source": "patent US9382311",
  "target": "JR-CSF gp120 N276A (HIV-1) (UniProt P20871)",
  "assay": "cell-based or functional assay",
  "data": [
    {"substance": "VRC01 (antibody)", "values": [
      {"measurement": "increase in neutralization potency", "value": 4, "unit": "fold"}
    ]}
  ]
}
